Assay results taken from patent publication US20140004120A1 (Daiichi Sankyo, published 2014).

Molecular target: T1, rsDR5 (recombinant human DR5 extracellular domain protein) (human, UniProt O14763 56-183)
T1 construct: the two may be offset
Experiment: gel filtration (Superdex 200) of the mixture of cB273 Fab fragment and rsDR5; complex then crystallized

- binding result: binds
B1: cB273 Fab fragment (Fab, V domains shown)
VH: EVQLQQSGPELVKPGASVKISCKASGYSFIGYFMNWMKQSHGKSLEWIGRFNPYNGDTFYNQKFKGKATLTVDKSSTTAHMELLSLTSEDSAVYFCGRSAYYFDSGGYFDYWGQGTTLTVSS
VL: DVVMTQTPLSLPVSLGDQASISCRSSQSLVHSNGNTYLHWYLQKPGQSPKLLIYKVSNRFSGVPDRFSGSGSGTDFTLKISRVEAEDLGIYFCSQSTHVPWTFGGGTKLEIKR
